The source of these data is publication PMC8666677 (The Journal of Biological Chemistry, 2021).

No end group written: not given here. fl = not defined here

For assay [1], the target named is ^D1-3YAClpA^xl (cross-linked ClpA pseudohexamer with alternating WT and defective D1 pore loops) (E. coli) (UniProt P0ABH9).
The target of a further assay is T1, ClpS adapter (E. coli, UniProt P0A8Q6 1-106).
T1 sequence: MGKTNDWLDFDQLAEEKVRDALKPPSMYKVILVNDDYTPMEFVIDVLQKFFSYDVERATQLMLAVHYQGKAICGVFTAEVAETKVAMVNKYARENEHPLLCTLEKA
Kind of assay: fluorescence polarisation. (In general: Fluorescence polarisation rises when a labelled molecule tumbles more slowly, as on binding a larger partner.)

For the molecule “^UFtitin-ssrA (ssrA-tagged titin^I27 domain unfolded by chemical modification of its two partially buried cysteines) (domain or fragment)”, in assay [1], the KM of ClpAP degradation of ^UFtitin-ssrA, against ClpA^xl was 3 fold.

B1: LLYVQRDSKEC-fl fluorescent N-degron peptide (peptide)
peptide: LLYVQRDSKEC-fl
modifications: reading uncertain; also: printed as LLYVQRDSKEC-fl
For B1, the binding result with ClpS adapter was “binds”.
